Substrate: C[C@]12CC[C@@H]3c4ccc(O)cc4CC[C@H]3[C@@H]1CC[C@@H]2O[C@@H]1O[C@H](C(=O)O)[C@@H](O)[C@H](O)[C@H]1O
Experiment: TP_TRANSPORTER: uptake in membrane vesicles from MRP7-expressing HEK293 cells
Assay type: functional, cell membranes
Settings: Membrane vesicle

B1: ATP-binding cassette sub-family C member 10 (Homo sapiens), Q5T3U5 (protein)
chain: MERLLAQLCGSSAAWPLPLWEGDTTGHCFTQLVLSALPHALLAVLSACYLGTPRSPDYILPCSPGWRLRLAASFLLSVFPLLDLLPVALPPGAGPGPIGLEVLAGCVAAVAWISHSLALWVLAHSPHGHSRGPLALALVALLPAPALVLTVLWHCQRGTLLPPLLPGPMARLCLLILQLAALLAYALGWAAPGGPREPWAQEPLLPEDQEPEVAEDGESWLSRFSYAWLAPLLARGACGELRQPQDICRLPHRLQPTYLARVFQAHWQEGARLWRALYGAFGRCYLALGLLKLVGTMLGFSGPLLLSLLVGFLEEGQEPLSHGLLYALGLAGGAVLGAVLQNQYGYEVYKVTLQARGAVLNILYCKALQLGPSRPPTGEALNLLGTDSERLLNFAGSFHEAWGLPLQLAITLYLLYQQVGVAFVGGLILALLLVPVNKVIATRIMASNQEMLQHKDARVKLVTELLSGIRVIKFCGWEQALGARVEACRARELGRLRVIKYLDAACVYLWAALPVVISIVIFITYVLMGHQLTATKVFTALALVRMLILPLNNFPWVINGLLEAKVSLDRIQLFLDLPNHNPQAYYSPDPPAEPSTVLELHGALFSWDPVGTSLETFISHLEVKKGMLVGIVGKVGCGKSSLLAAIAGELHRLRGHVAVRGLSKGFGLATQEPWIQFATIRDNILFGKTFDAQLYKEVLEACALNDDLSILPAGDQTEVGEKGVTLSGGQRARIALARAVYQEKELYLLDDPLAAVDADVANHLLHRCILGMLSYTTRLLCTHRTEYLERADAVLLMEAGRLIRAGPPSEILPLVQAVPKAWAENGQESDSATAQSVQNPEKTKEGLEEEQSTSGRLLQEESKKEGAVALHVYQAYWKAVGQGLALAILFSLLLMQATRNAADWWLSHWISQLKAENSSQEAQPSTSPASMGLFSPQLLLFSPGNLYIPVFPLPKAAPNGSSDIRFYLTVYATIAGVNSLCTLLRAVLFAAGTLQAAATLHRRLLHRVLMAPVTFFNATPTGRILNRFSSDVACADDSLPFILNILLANAAGLLGLLAVLGSGLPWLLLLLPPLSIMYYHVQRHYRASSRELRRLGSLTLSPLYSHLADTLAGLSVLRATGATYRFEEENLRLLELNQRCQFATSATMQWLDIRLQLMGAAVVSAIAGIALVQHQQGLANPGLVGLSLSYALSLTGLLSGLVSSFTQTEAMLVSVERLEEYTCDLPQEPQGQPLQLGTGWLTQGGVEFQDVVLAYRPGLPNALDGVTFCVQPGEKLGIVGRTGSGKSSLLLVLFRLLEPSSGRVLLDGVDTSQLELAQLRSQLAIIPQEPFLFSGTVRENLDPQGLHKDRALWQALKQCHLSEVITSMGGLDGELGEGGRSLSLGQRQLLCLARALLTDAKILCIDEATASVDQKTDQLLQQTICKRFANKTVLTIAHRLNTILNSDRVLVLQAGRVVELDSPATLRNQPHSLFQQLLQSSQQGVPASLGGP
Km: 57.8 µM

Source: ChEMBL document CHEMBL2074568, “Characterization of the transport properties of human multidrug resistance protein 7 (MRP7, ABCC10)” (Mol Pharmacol, 2003)
